Reference: paper PMC6382783

How the values were obtained:
[1] = target: YbeA-ssrA (Escherichia coli | not stated); assay: SEC; analytical SEC on an S200 10/300 GL column, 0.5-1 mL/min, molecular mass from Kav against a calibration curve of low molecular weight standards
[2] = target: ClpXP (ClpXΔN6 with ClpP14) (Escherichia coli | E. coli) (UniProt P0A6H1)
[3] = target: ThiS-YbeA-ssrA (Archaeoglobus fulgidus | Escherichia coli | not stated); assay: SEC; analytical SEC on an S200 10/300 GL column, 0.5-1 mL/min, molecular mass from Kav against a calibration curve of low molecular weight standards

YbeA-ssrA (enzyme)
stoichiometry N [1]: 2

UCH-L1-ssrA (enzyme)
degradation of PR65/A-ssrA by ClpXP in competition with equimolar UCH-L1-ssrA (5 µM each), SDS-PAGE and densitometry [2]: 2 fold

ThiS-YbeA-ssrA
stoichiometry N [3]: 2
